Results published in patent publication US20120264231A1, “ASSAY FOR ORAI CALCIUM CHANNEL REGULATORS” (IMMUNE DISEASE INSTITUTE, INC., priority 2009, published 2012).

Target: ORAI1 (E106Q) (Homo sapiens, UniProt Q96D31, E106Q)
Experiment: Cameleon D3 cpV intravesicular Ca^2+ assay, vesicles with ORAI1 (E106Q)
Type: biochemical
Design: the ORAI functional fragment is ORAI1 (65-301), ORAI1 (65-87), or full length ORAI1; made in house; host or cells: S. cerevisiae NY17 (sec6-4), isolated secretory vesicles
Details: vesicles containing ORAI1 (E106Q)
From the text: Confirmation that Ca^2+ release from the vesicles was due to gating of the ORAI 1 channel was sought. […] It was concluded that the in vitro assay reflects STIM 1-dependent gating of ORAI1 and Ca^2+ flux through the ORAI1 channel pore.
The yeast expression vector pBEVY-GU60 allows for simultaneous expression of two transgenes by means of the bidirectional GAL1-10 promoter. The FRET-based calcium sensors D3 cpV and D4 cpV53 were fused at the N-terminus with the S. cerevisiae α-mating factor secretion signal (Bitter, G. A., et al., Proc Natl Acad Sci USA 81, 5330-5334 (1984)), which directs proteins into the secretory pathway, and introduced into pBEVY-GU in the following way. Vector pPIC9 (Invitrogen) served as template for PCR amplification of the α-mating factor secretion signal (5′ primer: […] (SEQ ID NO: 2); 3′ primer: […] (SEQ ID NO: 3)), introducing an EcoRI site at the 5′ end, and a sequence complementary to that encoding the N-terminus of the calcium sensor at the 3′ end. DNA encoding the N-terminal portion of the calcium sensor D3 cpV, comprising CFP, was amplified by PCR (5′ primer: […] (SEQ ID NO: 4); 3′ primer: […] (SEQ ID NO: 5)), introducing an SphI site followed by a stop codon and a NotI site at the 3′ end of the resulting DNA fragment. […]

Sequence of ORAI1 (E106Q) (Q96D31 2-301 E106Q): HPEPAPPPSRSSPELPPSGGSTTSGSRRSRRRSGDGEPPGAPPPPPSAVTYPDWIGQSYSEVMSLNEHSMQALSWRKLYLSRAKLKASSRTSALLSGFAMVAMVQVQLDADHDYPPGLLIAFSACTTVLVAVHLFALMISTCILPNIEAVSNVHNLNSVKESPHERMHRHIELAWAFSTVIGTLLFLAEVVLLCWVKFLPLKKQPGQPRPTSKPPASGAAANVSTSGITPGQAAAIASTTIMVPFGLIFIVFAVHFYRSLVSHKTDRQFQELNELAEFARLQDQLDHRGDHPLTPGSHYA

STIM1^CT: cytoplasmic region of STIM1, mouse residues 233-685, His-tagged recombinant protein expressed in E coli
Ca^2+ release from vesicles: did not elicit Ca^2+ release
